± gives the uncertainty stated by the source.
Assay: self-splicing fitness, log relative to wild type (ln ratio); higher = more splicing; Tetrahymena group I intron in knt gene, E. coli kanamycin selection, DiMSum; sequences stand for … in CUCUCU…GGAGGGAAAAGUUAUCAGGCAUGCACCUGGUAGCUAGUCUUUAAACCAAUAGAUUGCAUCGGUUUAAAAGGCAAGACCGUCAAAUUGCGGGAAAGGGGUCAACAGCCGUUCAGUACCAAGUCUCAGGGGAAACUUUGAGAUGGCCUUGCAAAGGGUAUGGUAAUAAGCUGACGGACAUGGUCCUAACCACGCAGCCAAGUCCUAAGUCAACAGAUCUUCUGUUGAUAUGGAUGCAGUUCACAGACUAAAUGUCGGUCGGGGAAGAUGUAUUCUUCUCAUAAGAUAUAGUCGGACCUCUCCUUAAUGGGAGCUAGCGGAUGAAGUGAUGCAACACUGGAGCCGCUGGGAACUAAUUUGUAUGCGAAAGUAUAUUGAUUAGUUUUGGAGUACUCGUGGUCG
Outline: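 Pooled colonies went to amplicon sequencing on an Illumina HiSeq 2500 after six replicate transformations. The plates were LB agar with 100 μg/mL carbenicillin, 50 μM IPTG and 0.2% rhamnose, with or without 25 μg/mL kanamycin, incubated overnight at 37°C or 30°C. The E. coli BL21(DE3) library had all eight P1ex-region intron nucleotides randomised, the intron placed in the knt kanamycin-resistance gene on pET-22b(+). DiMSum fitness is the error-weighted combination of replicate fold changes, kanamycin against none, normalised to wild type.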

Sequence | self-splicing fitness (ln) (30 °C) | self-splicing fitness (ln) (37 °C)
GGGAAGCAAUAUUACGGCUG | -0.935 ± 0.13 | -0.54 ± 0.17
CAUCAGCAAUAUUACGUAAC | -2.81 ± 0.15 | -2.01 ± 0.24
CAGCAGCAAUAUUACGACAU | -3.505 ± 0.021 | -1.82 ± 0.034
GGAUAGCAAUAUUACGGAGC | -3.05 ± 0.26 | -2.51 ± 0.25
AGUUAGCAAUAUUACGCGGA | -0.823 ± 0.29 | -0.581 ± 0.14
UCCAAGCAAUAUUACGCAAU | -3.44 ± 0.22 | -2.71 ± 0.26
UCUCAGCAAUAUUACGGGUA | -0.605 ± 0.11 | -0.0376 ± 0.11
CCUUAGCAAUAUUACGUGGC | -4.19 ± 0.31 | -2.88 ± 0.31
UCAUAGCAAUAUUACGCUUU | -3.91 ± 0.24 | -2.41 ± 0.25
GAAGAGCAAUAUUACGACUA | -2.15 ± 0.29 | -1.92 ± 0.24
CCGAAGCAAUAUUACGGUAA | -1.62 ± 0.13 | -3.15 ± 0.23
GUGGAGCAAUAUUACGCAGG | – | -1.19 ± 0.28
UGAAAGCAAUAUUACGCCUA | 0.122 ± 0.093 | 0.207 ± 0.098
CUGGAGCAAUAUUACGACUA | -1.37 ± 0.28 | -1.38 ± 0.31
GAGAAGCAAUAUUACGGUCU | -2.29 ± 0.13 | -1.16 ± 0.17
GCGUAGCAAUAUUACGUUCA | -0.985 ± 0.11 | -0.728 ± 0.12
AUUGAGCAAUAUUACGUCAC | -3.9 ± 0.34 | -2.34 ± 0.39
GUGGAGCAAUAUUACGCAUC | – | -2.03 ± 0.41
CCCCAGCAAUAUUACGUCUG | -3.45 ± 0.16 | -2.04 ± 0.14
GGUGAGCAAUAUUACGAUGG | – | -1.2 ± 0.39
CAGUAGCAAUAUUACGCAGU | -3.52 ± 0.34 | -2.33 ± 0.22
GAAGAGCAAUAUUACGUAGG | -3.14 ± 0.33 | -1.99 ± 0.19
GGCAAGCAAUAUUACGAUAC | -0.974 ± 0.076 | -0.363 ± 0.087
UAUUAGCAAUAUUACGCAGG | -1.43 ± 0.14 | -0.962 ± 0.14
GAAAAGCAAUAUUACGUCAC | -2.2 ± 0.19 | -1.64 ± 0.31
GUGUAGCAAUAUUACGUUUC | -2.63 ± 0.13 | -1.92 ± 0.13

Sequence | self-splicing fitness (ln) (30 °C) | self-splicing fitness (ln) (37 °C)
AGACAGCAAUAUUACGGGCC | -1.45 ± 0.1 | -1.21 ± 0.11
GAUCAGCAAUAUUACGUCAU | -1.53 ± 0.094 | -0.393 ± 0.1
GAGAAGCAAUAUUACGGCAC | -1.28 ± 0.083 | -0.111 ± 0.15
UACUAGCAAUAUUACGUCCU | -1 ± 0.13 | -1.26 ± 0.15
GGCUAGCAAUAUUACGAGGC | -2.31 ± 0.24 | –
AUGUAGCAAUAUUACGGAAC | – | -1.16 ± 0.41
CGAUAGCAAUAUUACGCCGG | -0.546 ± 0.11 | -0.0292 ± 0.14
CGCUAGCAAUAUUACGCUUA | -3.03 ± 0.33 | -2.75 ± 0.27
CACAAGCAAUAUUACGAGGU | -3.59 ± 0.17 | -2.2 ± 0.18
CAAGAGCAAUAUUACGCCGA | -2.4 ± 0.23 | -1.04 ± 0.32
UGUGAGCAAUAUUACGAACG | -0.83 ± 0.075 | 0.261 ± 0.086
GAAAAGCAAUAUUACGCGGC | -3.33 ± 0.19 | -3.07 ± 0.26
GGCAAGCAAUAUUACGAACA | -2.07 ± 0.24 | -0.92 ± 0.18
UGCCAGCAAUAUUACGCCAG | -3.29 ± 0.18 | -2.39 ± 0.27
CUUCAGCAAUAUUACGCCAC | -2.72 ± 0.5 | –
GGCAAGCAAUAUUACGGAUC | -0.625 ± 0.096 | -0.11 ± 0.099
GAGUAGCAAUAUUACGCUUU | -3.16 ± 0.32 | -1.39 ± 0.23
AGUAAGCAAUAUUACGCCGA | -1.31 ± 0.45 | -0.709 ± 0.46
UUGGAGCAAUAUUACGUCCG | -2.22 ± 0.29 | -1.27 ± 0.4
AGGGAGCAAUAUUACGACAA | -3.29 ± 0.29 | -3.44 ± 0.42
CGGCAGCAAUAUUACGGGGU | -3.58 ± 0.19 | -3.28 ± 0.31
GGCUAGCAAUAUUACGUUAU | -0.733 ± 0.072 | -0.394 ± 0.091
CGCUAGCAAUAUUACGUGAC | – | -2.52 ± 0.3
CCUAAGCAAUAUUACGACCG | -1.24 ± 0.14 | -0.121 ± 0.13
UGGCAGCAAUAUUACGAGAU | -1.46 ± 0.21 | –
UAGAAGCAAUAUUACGAAGU | -3.7 ± 0.4 | -1.17 ± 0.22

Sequence | self-splicing fitness (ln) (30 °C) | self-splicing fitness (ln) (37 °C)
ACCGAGCAAUAUUACGCUGA | -3.32 ± 0.24 | -1.24 ± 0.16
CGCGAGCAAUAUUACGGAAU | -3.2 ± 0.2 | -3.01 ± 0.25
GACUAGCAAUAUUACGCAAA | -1.49 ± 0.15 | -1.88 ± 0.23
UGCCAGCAAUAUUACGCCUG | -2.1 ± 0.16 | -0.0397 ± 0.12
AACAAGCAAUAUUACGUCGU | -2.18 ± 0.068 | -0.677 ± 0.067
CAUUAGCAAUAUUACGCCUG | -1.4 ± 0.12 | -0.136 ± 0.12
GGUGAGCAAUAUUACGGCAA | -1.26 ± 0.34 | -1.28 ± 0.42
AGAAAGCAAUAUUACGGGAG | -2.56 ± 0.097 | -1.97 ± 0.12
CAAUAGCAAUAUUACGGGCC | – | -1.94 ± 0.29
GUAAAGCAAUAUUACGCGUC | -1.05 ± 0.12 | -1.3 ± 0.14
CCGGAGCAAUAUUACGUAUU | – | -1.05 ± 0.21
AAACAGCAAUAUUACGCGGC | -3.54 ± 0.12 | -2.7 ± 0.12
UAGCAGCAAUAUUACGCGCU | -2.62 ± 0.12 | -1.6 ± 0.12
UAGUAGCAAUAUUACGUAGA | -3.53 ± 0.24 | -1.93 ± 0.17
CCGCAGCAAUAUUACGGUAG | -2.16 ± 0.086 | -1.11 ± 0.093
ACUGAGCAAUAUUACGAUGA | -1.9 ± 0.091 | -1.59 ± 0.098
GGUUAGCAAUAUUACGGAAG | – | -2.49 ± 0.36
AAACAGCAAUAUUACGGCAG | -2.08 ± 0.099 | -0.063 ± 0.1
GUCAAGCAAUAUUACGUAGG | -3.17 ± 0.14 | -2.28 ± 0.15
UGACAGCAAUAUUACGGACC | -0.664 ± 0.12 | -0.748 ± 0.21
GCGUAGCAAUAUUACGCGGU | -2.42 ± 0.29 | -2.48 ± 0.3
CUUAAGCAAUAUUACGUUUC | -3.98 ± 0.17 | -3.23 ± 0.28
CGUUAGCAAUAUUACGGAUA | -1.83 ± 0.37 | -2.08 ± 0.31
UGCCAGCAAUAUUACGGCAC | -2.9 ± 0.33 | -2.56 ± 0.3
UACCAGCAAUAUUACGUACC | -2.33 ± 0.11 | -2.23 ± 0.17
UGUAAGCAAUAUUACGAAGG | -2.14 ± 0.15 | -1.92 ± 0.25

— the supplement of paper PMC7877785
